In the supplement of paper PMC9170038:

Key:
MS2 coat protein [1] = assay: apparent KD of MS2 coat protein; designed switch direction (-1 OFF switch, 1 ON switch): -1; higher = weaker reporter binding; settings: Eterna round: R98
Method: (§1)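 RNA-MaP: designed FMN/MS2 RNA switches (84 nt design region) are transcribed on-chip within common flanks and titrated with SNAP-549-labelled MS2 coat protein (about 1-3000 nM) in 100 mM Tris pH 7.5, 80 mM KCl, 4 mM MgCl2, without or with 200 uM FMN. Median apparent KD per design; activation ratio = KD,OFF / KD,ON.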

MS2 coat protein [2] = assay: apparent KD of MS2 coat protein; designed switch direction (-1 OFF switch, 1 ON switch): 1; higher = weaker reporter binding; settings: Eterna round: R98
Method: as §1

Row | Sequence | apparent KD of MS2 coat protein (MS2 coat protein [1]; input ligand: FMN 200 uM) [nM] | apparent KD of MS2 coat protein (MS2 coat protein [1]; input ligand: none) [nM] | apparent KD of MS2 coat protein (MS2 coat protein [2]; input ligand: FMN 200 uM) [nM] | apparent KD of MS2 coat protein (MS2 coat protein [2]; input ligand: none) [nM]
1 | AACAGCGUAGAUAAUAAUGAUUACAUGAGGAUCACCCAUGUAUAGGAUAUGCAGUGGAAUACACUGCAGAAGGAUACAUCGCUG [Exclusion NG 3/18-B1] | 33 | 17.5 | – | –
2 | AAUAUAAAAGAGCUGGAUAACUCAACAUGAGGAUCACCCAUGUAGGAUAUCAGCACGAUAAGUGCUGAGAAGGACAACCAGCUC [Denovo 69] | 16.2 | 14.8 | – | –
3 | AGCUGUGGCCGAGGAUAUCUAUCUUCAAUAACCGAAAUAUAAUCGGACAUGAGGAUCACCCAUGUAGAGAAGGCGGUCUCAGCA [Eli xng2 2.033] | 100 | 37.7 | – | –
4 | AUGACAGGCAAAGCGCAACGGCGAACAUGAGGAUCACCCAUGUAGGAUAUGCUACACAAAGUGUAGCAGAAGGACAUACGACGA [Ex NG2 #82] | 88.6 | 41.2 | – | –
5 | AUGCUUCACACAGGAUAUACAUGAGGAUCACCCAUGUGUGGGCGGUAGCUGACACGAGCUACCGGGUAGAAGGGUGUGAAGCAU [xclu_NG2_cac21] | 127 | 32.6 | – | –
6 | CCAUACAUGAGGAUCACCCAUGACAUGAGGAUCACCCAUGUGCAGGAUAUACGUGAUAUAAUAAAGUAGAAGGGCAGACCAAAA [LRO002_Exclusion NG 3] | 87.4 | 74.2 | – | –
7 | GCACUGGAUGUAGGAUAUCAGGACGAUAAGUCCUGAGAAGGACAUGAGGAUCACCCAUGUGAAUAAAACCAGUGCAAUAAUAUA [Denovo Exng1 22] | 30.9 | 13.4 | – | –
8 | GCCAUCGCAUGAGGAUAUGGACAGCUUUGCUGUCCAGAAGGCAUGUCAUAAGACAUGAGGAUCACCCAUGUAGUUAAGAUGGCA [Mat - Same State NG 1 - JL Mod - D15] | – | – | 74.1 | 1070
9 | GCCAUCGCAUGAGGAUAUGGCACCGUUUCGGUGCCAGAAGGCAUGUCUCUAGACAUGAGGAUCACCCAUGUAGUUAAGAUGGCA [Pyrimidine booster 2] | – | – | 50.4 | 589
10 | GGACAUCCCACAGGAUAUGCUGGACUUUGUCCAGCAGAAGGGUGACAUGAGGAUCACCCAUGUAAUAGGAUGUCCAUAUUUAAU [Denovo 38] | – | – | 79.3 | 536
11 | GGCGAUCAGGCUAACAUGAGGAUCACCCAUGUGGACUCAUGGUAGGAUAUGCUGUACAAAGUACAGCAGAAGGGCCGGAGAGCC [Mat - Same State NG 3 - JL Mod - D2] | – | – | 144 | 152
12 | GGUCCAAUAUGAGGAUAUAGCACCUUAUUGGUGCUAGAAGGCGUGUCGGUAGACAUGAGGAUCACCCAUGUAUUACAAUGGACC [SameState #28 NG1] | – | – | 25.6 | 88.6
13 | GUAGCAUACCGAGGAUAUUCAGAGAAUAAAUAAACAUGAGGAUCACCCAUGUGGCGAAAGCCUAGGGAGAAGGCGGAAUGCUAC [salish99_SSNG2_r2_208] | – | – | 25.3 | 81.9
14 | GUAGCAUACCGAGGAUAUUCAUAUAAUAAAUAAACAUGAGGAUCACCCAUGUGGCGAAAGCCUAGGGAGAAGGCGGAAUGCUAA [salish99_SSNG2_r2_113] | – | – | 23.6 | 201
15 | GUAGCAUACCGAGGAUAUUCAUAUAAUAAAUAAACAUGAGGAUCACCCAUGUGGCGAAAGCCUAGGGAGAAGGCGGAAUGCUAG [salish99_SSNG2_r2_003] | – | – | 22.1 | 248
